Data: paper PMC7153837

Target: B10v5xhu225L, c-METxEGFR bispecific SEED antibody reconstituted by Npu DnaE protein trans-splicing
Experiment: BLI

Kd: 0.22 µM
Substance: EGFR (EGF receptor), recombinant antigen (from UniProt P00533 25-1210)
